Data on one substance can be found in PMC13237374.

This assay addresses human medin (human) (UniProt Q08431). Description: thioflavin T aggregation kinetics.

Take “human medin (from UniProt Q08431 268-317) (peptide)”: the critical concentration of aggregation came to 14 nM, the critical monomer concentration for aggregation fell in the range of 10 to 25 nM and the elongation rate constant k+ (monomer addition to fibril ends) is 5e+07 M⁻¹ s⁻¹.
